Test results published in IntAct's records for PubMed 22153509.

B1: Interleukin-5 receptor subunit alpha (Homo sapiens), Q01344-2 (parent)
chain: MIIVAHVLLILLGATEILQADLLPDEKISLLPPVNFTIKVTGLAQVLLQWKPNPDQEQRNVNLEYQVKINAPKEDDYETRITESKCVTILHKGFSASVRTILQNDHSLLASSWASAELHAPPGSPGTSIVNLTCTTNTTEDNYSRLRSYQVSLHCTWLVGTDAPEDTQYFLYYRYGSWTEECQEYSKDTLGRNIACWFPRTFILSKGRDWLAVLVNGSSKHSAIRPFDQLFALHAIDQINPPLNVTAEIEGTRLSIQWEKPVSAFPIHCFDYEVKIHNTRNGYLQIEKLMTNAFISIIDDLSKYDVQVRAAVSSMCREAGLWSEWSQPIYVGFSR

Variants of: B1
Conditions: with il5_human IL5, P05113
Sequence of il5_human IL5, P05113 (P05113 whole entry): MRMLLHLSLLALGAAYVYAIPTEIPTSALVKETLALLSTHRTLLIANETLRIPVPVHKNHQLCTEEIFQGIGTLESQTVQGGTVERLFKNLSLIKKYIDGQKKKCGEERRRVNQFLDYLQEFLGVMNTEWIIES
With MIIVAHVLLILLGATEILQADLLPDEKISLLPPVNFTIKVTGLAQVLLQWKPNPDQEQRNVNLEYQVKINAPKEDDYETAITESKCVTILHKGFSASVRTILQNDHSLLASSWASAELHAPPGSPGTSIVNLTCTTNTTEDNYSRLRSYQVSLHCTWLVGTDAPEDTQYFLYYRYGSWTEECQEYSKDTLGRNIACWFPRTFILSKGRDWLAVLVNGSSKHSAIRPFDQLFALHAIDQINPPLNVTAEIEGTRLSIQWEKPVSAFPIHCFDYEVKIHNTRNGYLQIEKLMTNAFISIIDDLSKYDVQVRAAVSSMCREAGLWSEWSQPIYVGFSR [R80A] the “effect of a mutation on the interaction” value was “decreasing interaction”.
In the case of MIIVAHVLLILLGATEILQADLLPDEKISLLPPVNFTIKVTGLAQVLLQWKPNPDQEQRNVNLEYQVKINAPKEDDYETRITEAKCVTILHKGFSASVRTILQNDHSLLASSWASAELHAPPGSPGTSIVNLTCTTNTTEDNYSRLRSYQVSLHCTWLVGTDAPEDTQYFLYYRYGSWTEECQEYSKDTLGRNIACWFPRTFILSKGRDWLAVLVNGSSKHSAIRPFDQLFALHAIDQINPPLNVTAEIEGTRLSIQWEKPVSAFPIHCFDYEVKIHNTRNGYLQIEKLMTNAFISIIDDLSKYDVQVRAAVSSMCREAGLWSEWSQPIYVGFSR [S84A], the “effect of a mutation on the interaction” value is reported as “decreasing interaction”.
For MIIVAHVLLILLGATEILQADLLPDEKISLLPPVNFTIKVTGLAQVLLQWKPNPDQEQRNVNLEYQVKINAPKEDDYETRITESKCVTILHKGFSASVRTILQNDHSLLASSWASAELHAPPGSPGTSIVNLTCTTNTTEDNYSRLRSYQVSLHCTWLVGTDAPEDTQYFLYYRYGSATEECQEYSKDTLGRNIACWFPRTFILSKGRDWLAVLVNGSSKHSAIRPFDQLFALHAIDQINPPLNVTAEIEGTRLSIQWEKPVSAFPIHCFDYEVKIHNTRNGYLQIEKLMTNAFISIIDDLSKYDVQVRAAVSSMCREAGLWSEWSQPIYVGFSR [W178A], the “effect of a mutation on the interaction” value was “decreasing interaction”.
In the case of MIIVAHVLLILLGATEILQADLLPDEKISLLPPVNFTIKVTGLAQVLLQWKPNPDQEQRNVNLEYQVKINAPKEDDAETRITESKCVTILHKGFSASVRTILQNDHSLLASSWASAELHAPPGSPGTSIVNLTCTTNTTEDNYSRLRSYQVSLHCTWLVGTDAPEDTQYFLYYRYGSWTEECQEYSKDTLGRNIACWFPRTFILSKGRDWLAVLVNGSSKHSAIRPFDQLFALHAIDQINPPLNVTAEIEGTRLSIQWEKPVSAFPIHCFDYEVKIHNTRNGYLQIEKLMTNAFISIIDDLSKYDVQVRAAVSSMCREAGLWSEWSQPIYVGFSR [Y77A], the “effect of a mutation on the interaction” value is reported as “decreasing interaction”.
With MIIVAHVLLILLGATEILQADLLPDEKISLLPPVNFTIKVTGLAQVLLQWKPNPDQEQRNVNLEYQVKINAPKEDDYETRITESKCVTILHKGFSASVRTILQNDHSLLASSWASAELHAPPGSPGTSIVNLTCTTNTTEDNYSRLRSYQVSLHCTWLVGTDAPEDTQYFLYYRYGSWTEECQEYSKDTLGRNIACWFPRTFALSKGRDWLAVLVNGSSKHSAIRPFDQLFALHAIDQINPPLNVTAEIEGTRLSIQWEKPVSAFPIHCFDYEVKIHNTRNGYLQIEKLMTNAFISIIDDLSKYDVQVRAAVSSMCREAGLWSEWSQPIYVGFSR [I203A] the “effect of a mutation on the interaction” value was “decreasing interaction”.
For MIIVAHVLLILLGATEILQADLLPDEKISLLPPVNFTIKVTGLAQVLLQWKPNPDQEQRNVNLEYQVKINAPKEEDYETRITESKCVTILHKGFSASVRTILQNDHSLLASSWASAELHAPPGSPGTSIVNLTCTTNTTEDNYSRLRSYQVSLHCTWLVGTDAPEDTQYFLYYRYGSWTEECQEYSKDTLGRNIACWFPRTFILSKGRDWLAVLVNGSSKHSAIRPFDQLFALHAIDQINPPLNVTAEIEGTRLSIQWEKPVSAFPIHCFDYEVKIHNTRNGYLQIEKLMTNAFISIIDDLSKYDVQVRAAVSSMCREAGLWSEWSQPIYVGFSR [D75E], the “effect of a mutation on the interaction” value was “decreasing interaction”.
With MIIVAHVLLILLGATEILQADLLPDEKISLLPPVNFTIKVTGLAQVLLQWKPNPDQEQRNVNLEYQVKINAPKEDDYPTRITESKCVTILHKGFSASVRTILQNDHSLLASSWASAELHAPPGSPGTSIVNLTCTTNTTEDNYSRLRSYQVSLHCTWLVGTDAPEDTQYFLYYRYGSWTEECQEYSKDTLGRNIACWFPRTFILSKGRDWLAVLVNGSSKHSAIRPFDQLFALHAIDQINPPLNVTAEIEGTRLSIQWEKPVSAFPIHCFDYEVKIHNTRNGYLQIEKLMTNAFISIIDDLSKYDVQVRAAVSSMCREAGLWSEWSQPIYVGFSR [E78P] the “effect of a mutation on the interaction” value was “disrupting interaction”.
MIIVAHVLLILLGATEILQADLLPDEKISLLPPVNFTIKVTGAAQVLLQWKPNPDQEQRNVNLEYQVKINAPKEDDYETRITESKCVTILHKGFSASVRTILQNDHSLLASSWASAELHAPPGSPGTSIVNLTCTTNTTEDNYSRLRSYQVSLHCTWLVGTDAPEDTQYFLYYRYGSWTEECQEYSKDTLGRNIACWFPRTFILSKGRDWLAVLVNGSSKHSAIRPFDQLFALHAIDQINPPLNVTAEIEGTRLSIQWEKPVSAFPIHCFDYEVKIHNTRNGYLQIEKLMTNAFISIIDDLSKYDVQVRAAVSSMCREAGLWSEWSQPIYVGFSR [L43A] was tested, and the “effect of a mutation on the interaction” value was “disrupting interaction”.
For MIIVAHVLLILLGATEILQADLLPDEKISLLPPVNFTIKVTGLAQVLLQWKPNPDQEQRNVNLEYQVKINAPKEDDYETRITESKCVTALHKGFSASVRTILQNDHSLLASSWASAELHAPPGSPGTSIVNLTCTTNTTEDNYSRLRSYQVSLHCTWLVGTDAPEDTQYFLYYRYGSWTEECQEYSKDTLGRNIACWFPRTFILSKGRDWLAVLVNGSSKHSAIRPFDQLFALHAIDQINPPLNVTAEIEGTRLSIQWEKPVSAFPIHCFDYEVKIHNTRNGYLQIEKLMTNAFISIIDDLSKYDVQVRAAVSSMCREAGLWSEWSQPIYVGFSR [I89A], the “effect of a mutation on the interaction” value was “decreasing interaction”.
